Data published in PMC6614362.

Legend:
[1] = biological target: RsbS (Listeria monocytogenes stressosome component) (L. monocytogenes); experiment: cryo-EM structure; stressosome assembled from purified RsbR, RsbS and RsbT with 1 mM ADP; 20 µg/ml on Quantifoil grids; maps at 4.48 Å (no symmetry) and 3.38 Å (icosahedral symmetry, turrets masked out)
[2] = biological target: RsbR (Listeria monocytogenes stressosome component) (L. monocytogenes); experiment: as above
[3] = biological target: RsbS (Listeria monocytogenes stressosome component) (L. monocytogenes); experiment: SEC; purified RsbR and RsbS mixed, complex taken from Superose 6 void volume, combined with excess RsbT (4 °C, 4 h), Superose 6 in 20 mM Tris HCl pH 8.5, 150 mM NaCl, 1 mM ADP, 1 mM DTT; fractions analysed by SDS-PAGE
[4] = biological target: RsbR:RsbS complex (preformed, purified by gel filtration) (L. monocytogenes); experiment: as above

Question: For “RsbS (Listeria monocytogenes stressosome component) (natural protein)”, which stoichiometry N [1] is on record?
Answer: The stoichiometry N was 2.

Question: “RsbR (Listeria monocytogenes stressosome component) (natural protein)” was tested. Which stoichiometry N [2] did it give?
Answer: Its stoichiometry N is 2.

Question: And the stoichiometry N (RsbR per RsbS) [3]?
Answer: Its stoichiometry N (RsbR per RsbS) is 2.

Question: Which stoichiometry N (RsbT per RsbS (RsbR:RsbS:RsbT 2:1:1)) [4] does the source give for “RsbT (Listeria monocytogenes stressosome kinase) (enzyme)” here?
Answer: The stoichiometry N (RsbT per RsbS (RsbR:RsbS:RsbT 2:1:1)) was 1.
